According to publication PMC5171940:

Target: biotinylated Aβ immobilised for the SPR of CreneFab alanine mutants
Experiment: SPR; BIAcore T200, single-cycle kinetics; biotinylated Aβ (11–28 or oligomeric 1–42) captured on streptavidin-coupled CM5 chip (100–200 RU); antibody as analyte 0.8–500 nM in HBS-P pH 7.4, 0.15 M NaCl; one-to-one Langmuir model

Row | fold reduction of affinity against wild-type CreneFab | Binder
1 | 1.8 fold | CreneFab Ser52a alanine mutant (Fab, V domains shown) VH: EVQLVESGGGLVQPGGSLRLSCAASGFTFSSYGMSWVRQAPGKGLELVASINANGGSTYYPDSVKGRFTISRDNAKNSLYLQMNSLRAEDTAVYYCASGDYWGQGTLVTVSS VL: DIVMTQSPLSLPVTPGEPASISCRSSQSLVYSNGDTYLHWYLQKPGQSPQLLIYKVSNRFSGVPDRFSGSGSGTDFTLKISRVEAEDVGVYYCSQSTHVPWTFGQGTKVEIK
2 | 2.6 fold | CreneFab with deletion of Glu1^HC and Val2^HC (Fab, V domains shown) VH: QLVESGGGLVQPGGSLRLSCAASGFTFSSYGMSWVRQAPGKGLELVASINSNGGSTYYPDSVKGRFTISRDNAKNSLYLQMNSLRAEDTAVYYCASGDYWGQGTLVTVSS VL: DIVMTQSPLSLPVTPGEPASISCRSSQSLVYSNGDTYLHWYLQKPGQSPQLLIYKVSNRFSGVPDRFSGSGSGTDFTLKISRVEAEDVGVYYCSQSTHVPWTFGQGTKVEIK
